Measurements from patent US20200040084A1.

Assays:
[1] = biological target: FcγRIIa (secondary ADCP assay, M2c macrophage effector cells) (UniProt P12318); assay: cell-based or functional assay
[2] = biological target: FcγRIIIa (secondary ADCC assays, NK effector cells) (UniProt P08637); assay: cell-based or functional assay
[3] = biological target: FcγRIIIa on Jurkat effector cells (UniProt P08637); assay: cell-based or functional assay
[4] = biological target: human FcγRIIa-H variant (Histidine at amino acid 131) on Jurkat effector cells (human) (UniProt P12318); assay: cell-based or functional assay
human FcγRIIa-H variant (Histidine at amino acid 131) on Jurkat effector cells (human), sequence (P12318 34-317, change not shown): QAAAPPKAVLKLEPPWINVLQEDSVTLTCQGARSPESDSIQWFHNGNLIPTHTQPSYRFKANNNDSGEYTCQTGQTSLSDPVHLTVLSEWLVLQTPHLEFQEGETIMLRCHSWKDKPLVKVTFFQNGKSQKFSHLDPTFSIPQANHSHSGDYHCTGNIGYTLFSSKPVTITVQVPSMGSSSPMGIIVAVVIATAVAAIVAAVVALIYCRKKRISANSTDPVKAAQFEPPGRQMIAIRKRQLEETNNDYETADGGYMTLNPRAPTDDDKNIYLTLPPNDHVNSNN

FcγRIIa = FcγRIIa (UniProt P12318); assay: SPR, FcγRIIa binding
FcγRIIa, sequence (P12318 34-217 limits assumed): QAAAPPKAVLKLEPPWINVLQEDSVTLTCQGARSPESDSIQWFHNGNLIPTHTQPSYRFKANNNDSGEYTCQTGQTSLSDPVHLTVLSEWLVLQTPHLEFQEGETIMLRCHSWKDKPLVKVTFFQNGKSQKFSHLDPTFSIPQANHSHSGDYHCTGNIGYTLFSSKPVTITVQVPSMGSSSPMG

fucosylated anti-PD-L1 IgG1 antibody (avelumab), sequence (HC): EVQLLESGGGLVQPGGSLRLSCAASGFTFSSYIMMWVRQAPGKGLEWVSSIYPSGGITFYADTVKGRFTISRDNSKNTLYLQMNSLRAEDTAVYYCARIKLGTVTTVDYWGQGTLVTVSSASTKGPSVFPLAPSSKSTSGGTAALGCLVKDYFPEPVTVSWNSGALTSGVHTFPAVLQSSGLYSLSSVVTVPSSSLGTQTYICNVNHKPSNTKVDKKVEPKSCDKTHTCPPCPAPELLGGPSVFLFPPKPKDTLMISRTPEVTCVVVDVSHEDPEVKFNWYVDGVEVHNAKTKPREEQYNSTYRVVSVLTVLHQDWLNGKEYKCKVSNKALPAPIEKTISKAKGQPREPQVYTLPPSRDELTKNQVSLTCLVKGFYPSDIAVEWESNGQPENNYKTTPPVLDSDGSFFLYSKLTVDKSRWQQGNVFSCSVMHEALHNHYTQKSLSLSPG
fucosylated anti-PD-L1 IgG1 antibody (avelumab), sequence (LC): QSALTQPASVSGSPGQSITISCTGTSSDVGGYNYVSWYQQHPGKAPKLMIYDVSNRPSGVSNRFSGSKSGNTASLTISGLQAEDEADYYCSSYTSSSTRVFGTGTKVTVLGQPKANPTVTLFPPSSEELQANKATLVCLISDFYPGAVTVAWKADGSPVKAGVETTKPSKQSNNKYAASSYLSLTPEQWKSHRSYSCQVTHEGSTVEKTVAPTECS
afucosylated anti-PD-L1 IgG1 antibody (avelumab), sequence (HC): as the sequence (HC) above
afucosylated anti-PD-L1 IgG1 antibody (avelumab), sequence (LC): as the sequence (LC) above

In the case of “afucosylated anti-CD20 IgG1 antibody (obinutuzumab)”, the EC50 mean, ADCP in KILR Raji cells (M2c macrophages) [1] is reported as 0.37 nM.

With “fucosylated anti-CD20 IgG1 antibody (obinutuzumab)” the EC50 mean, ADCC in KILR Raji cells (NK cells) [2] was 0.033 nM, the EC50 mean, FcγRIIIa signaling in ADCC reporter assay (Raji targets) [3] was 7.1 nM and the EC50 mean, ADCP in KILR Raji cells (M2c macrophages) [1] was 0.82 nM. For the same substance, the EC50 mean, FcγRIIa signaling in ADCP reporter assay (Raji targets) [4] was 7.1 nM.

For “afucosylated version of Ipilimumab (antibody)”, the fold enhancement of binding by afucosylation (FcγRIIa) was 10 fold.

With “fucosylated anti-PD-L1 IgG1 antibody (avelumab)” the EC50 mean, FcγRIIIa signaling in ADCC reporter assay (HEK-PD-L1 targets) [3] was 0.049 nM.

For “afucosylated anti-PD-L1 IgG1 antibody (avelumab)”, the EC50 mean, ADCC in KILR-A549 cells (NK cells) [2] was 0.0054 nM.
